Assays:
[1] = molecular target: Murine FGFR-3(IIIc) expressed on L6 cells (murine) (UniProt Q61851); assay: fluorescent antibody 200 nM on FGFR-3 transfected L6 cells, 1 h at 4° C. followed by acid stripping, Odyssey imaging
[2] = molecular target: Murine FGFR-3(IIIc) expressed on L6 cells (murine) (UniProt Q61851); assay: fluorescent antibody 200 nM on FGFR-3 transfected L6 cells, 1 h at 37° C., Odyssey imaging
[3] = molecular target: Murine FGFR-3(IIIc) expressed on L6 cells (murine) (UniProt Q61851); assay: fluorescent antibody 200 nM on FGFR-3 transfected L6 cells, 1 h at 37° C. followed by acid stripping, Odyssey imaging
[4] = molecular target: Murine FGFR-3(IIIc) expressed on L6 cells (murine) (UniProt Q61851); assay: fluorescent antibody 200 nM on FGFR-3 transfected L6 cells, 1 h at 4° C., Odyssey imaging

Murine FGFR-3(IIIc) expressed on L6 cells (murine), sequence (Q61851 21-801): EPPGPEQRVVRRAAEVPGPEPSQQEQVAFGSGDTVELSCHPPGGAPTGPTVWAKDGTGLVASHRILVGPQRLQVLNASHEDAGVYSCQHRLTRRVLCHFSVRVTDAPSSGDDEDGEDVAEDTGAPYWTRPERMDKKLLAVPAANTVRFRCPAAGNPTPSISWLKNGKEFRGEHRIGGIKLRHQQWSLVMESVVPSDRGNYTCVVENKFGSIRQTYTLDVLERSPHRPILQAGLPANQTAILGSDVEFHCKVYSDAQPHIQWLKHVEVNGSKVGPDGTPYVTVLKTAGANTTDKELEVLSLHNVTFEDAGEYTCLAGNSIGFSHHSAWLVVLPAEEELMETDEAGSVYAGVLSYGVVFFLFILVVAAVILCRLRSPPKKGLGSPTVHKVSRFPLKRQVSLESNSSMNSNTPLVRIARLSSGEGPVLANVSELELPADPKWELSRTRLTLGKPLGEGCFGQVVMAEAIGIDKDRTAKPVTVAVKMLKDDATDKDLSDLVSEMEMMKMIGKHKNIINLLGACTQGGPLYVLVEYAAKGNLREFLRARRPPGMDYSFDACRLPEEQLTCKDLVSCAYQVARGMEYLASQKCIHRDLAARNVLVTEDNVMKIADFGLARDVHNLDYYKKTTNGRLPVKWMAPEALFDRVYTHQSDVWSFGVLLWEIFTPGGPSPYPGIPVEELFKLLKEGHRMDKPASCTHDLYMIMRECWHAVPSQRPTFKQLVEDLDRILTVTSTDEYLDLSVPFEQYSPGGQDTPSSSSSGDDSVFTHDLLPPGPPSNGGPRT

With “isotype-matched non-specific control antibody” the relative fluorescent intensity [1] was 0.6, the relative fluorescent intensity [2] was 1.1 and the relative fluorescent intensity [3] was 1. For the same substance, the relative fluorescent intensity [4] was 1.5.
